Data published in patent US20100273722A1 (YALE UNIVERSITY, published 2010).
No end group written: not given here.

How the values were obtained:
[1] = target: the molecule itself; assay: sedimentation equilibrium AUC, self-association (tetramer), 25 C
[2] = target: the molecule itself; assay: sedimentation equilibrium AUC, self-association, monomer-n-mer fit, 25 C
[3] = target: the molecule itself; assay: sedimentation equilibrium AUC, self-association (dimer), 25 C
[4] = target: T1, human Lyn (residues 62-122) SH3 domain-GST fusion protein (human, UniProt P07948 62-122); assay: fluorescence polarization, 50 nM labeled peptide, SH3-GST titrated
T1 construct: range 62-122; also called Lyn SH3
T1 sequence (P07948 62-122): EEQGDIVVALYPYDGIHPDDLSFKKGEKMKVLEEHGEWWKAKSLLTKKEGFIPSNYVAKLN

[5] = target: T2, human Lck (residues 62-128) SH3 domain-GST fusion (human, UniProt P06239 62-128); assay: as above
T2 construct: range 62-128; also called Lck SH3
T2 sequence (P06239 62-128): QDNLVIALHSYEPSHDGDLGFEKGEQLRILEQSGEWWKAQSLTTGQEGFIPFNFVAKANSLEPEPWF

[6] = target: T3, human Fyn (residues 81-142) SH3 domain-GST fusion protein (human, UniProt P06241 81-142); assay: as above
T3 construct: range 81-142; also called Fyn SH3
T3 sequence (P06241 81-142): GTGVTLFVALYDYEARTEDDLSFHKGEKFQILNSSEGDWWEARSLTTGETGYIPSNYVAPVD

[7] = target: T4, human Hck (residues 77-137 of full-length kinase) SH3 domain-GST fusion protein (human, UniProt P08631 77-137); assay: as above
T4 construct: range 77-137; also called Hck SH3
T4 sequence (P08631 77-137): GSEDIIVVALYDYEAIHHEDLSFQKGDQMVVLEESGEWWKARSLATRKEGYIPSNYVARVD

[8] = target: T1, human Lyn (residues 62-122) SH3 …; assay: fluorescence polarization, 50 nM labeled peptide, SH3-GST titrated; data above 50 micromolar target excluded from the fit
[9] = target: T4, human Hck (residues 77-137 of …); assay: as above
[10] = target: the molecule itself; assay: AUC, self-association, monomer/dimer/tetramer model, dimer term, 25 C; dimer term of the monomer/dimer/tetramer model, 25 C

B1: aPP^Y7AP13VV14P (peptide)
chain: GPSQPTAPGDDAVPEDLIRFYDNLQQYLNVVTRHRY-NH2
notes: Synthetic aPP variant; entries are for its self-association (tetramer); also called aPP^Y7AP13W14P
B1 was tested, and the Kd [1] was 0.00075 nM and the “lnKA (n = 4)” value [2] was 27.9.

B2: aPP^Y21A (peptide)
chain: GPSQPTYPGDDAPVEDLIRFADNLQQYLNVVTRHRY-NH2
notes: Synthetic aPP variant; entries are for its self-association (dimer)
B2 was tested, and the Kd [3] was 1300 nM and the “lnKA (n = 2)” value [2] was 13.6.

B3: aPP^Y7AQ25R (peptide)
chain: GPSQPTAPGDDAPVEDLIRFYDNLRQYLNVVTRHRY-NH2
notes: Synthetic aPP variant; entries are for its self-association (tetramer)
With B3 the Kd [1] was 0.00018 nM and the “lnKA (n = 4)” value [2] was 29.3.

B4: pancreatic peptide YY (PYY) (peptide)
chain: not shown
modifications: C-terminal carboxamide
notes: Synthetic; entries are for its self-association
With B4 the Kd [3] was 830000 nM and the “lnKA (n = 2)” value [2] was 7.09.

B5: aPP^Y7AT6E (peptide)
chain: GPSQPEAPGDDAPVEDLIRFYDNLQQYLNVVTRHRY-NH2
notes: entries are for its self-association (tetramer); also called aPP^Y7AAT6E
For B5, the Kd [1] was 0.0002 nM and the “lnKA (n = 4)” value [2] was 29.3.

B6: PP2^Flu (designed binder)
chain: APPLPPRNRGDDAPVEDLIRFYDNLQQYLNVVTRHRYC
modifications: ends and bridges not checked; also: fluorescently labeled, site and dye not given here
notes: also called PP2 (fluorescently labeled)
In the case of B6, the Kd [4] is reported as 3700 nM, the Kd [5] is reported as 2700 nM and the Kd [6] is reported as 14000 nM. For the same binder, the Kd [7] was 1300 nM.

B7: PP3^Flu (designed binder)
chain: APPLPPRNRPRDAPVEDLIRFYDNLQQYLNVVTRHRYC
modifications: ends and bridges not checked; also: fluorescently labeled, site and dye not given here
notes: also called PP3 (fluorescently labeled)
Binder B7 has a Kd [5] of 1430 nM, a Kd [6] of 2100 nM and a Kd [8] of 1800 nM. The Kd [9] was 880 nM.

B8: PP1^Flu (designed binder)
chain: APPLPPRNPGDDAPVEDLIRFYDNLQQYLNVVTRHRYC
modifications: ends and bridges not checked; also: fluorescently labeled, site and dye not given here
notes: also called PP1 (fluorescently labeled)
B8 was tested, and the Kd [4] was 4900 nM, the Kd [5] was 40000 nM and the Kd [6] was 25000 nM. For the same binder, the Kd [7] was 3800 nM.

B9: aPP^Y7AP13SV14P (peptide)
chain: GPSQPTAPGDDASPEDLIRFYDNLQQYLNVVTRHRY-NH2
notes: Synthetic aPP variant with the proline switch; entries are for its self-association (monomer/dimer/tetramer)
For B9, the Kd [10] was 530000 nM.

B10: aPP^Y7A (peptide)
chain: GPSQPTAPGDDAPVEDLIRFYDNLQQYLNVVTRHRY-NH2
notes: as for B3
In the case of B10, the Kd [1] is reported as 0.0039 nM and the “lnKA (n = 4)” value [2] is reported as 26.3.

B11: avian pancreatic polypeptide (aPP) (peptide)
chain: GPSQPTYPGDDAPVEDLIRFYDNLQQYLNVVTRHRY
modifications: ends and bridges not checked
notes: Bought from American Peptide Company; entries are for its self-association (dimer); also called wt aPP
B11 was tested, and the Kd [3] was 4100 nM and the “lnKA (n = 2)” value [2] was 12.4.

B12: aPP^F20A (peptide)
chain: GPSQPTYPGDDAPVEDLIRAYDNLQQYLNVVTRHRY-NH2
notes: as for B3
With B12 the Kd [1] was 0.076 nM and the “lnKA (n = 4)” value [2] was 23.3.
